# Like-named read-outs stand apart in the source and are kept apart here.
# T1: FcgRIIa H extracellular domain with C-terminal His tag (human, UniProt P12318 34-217)
# T1 construct: extracellular domain; also called FcγRIIa H; FcγRIIa type H; not shown: His tag attached to the C terminus
# T1 sequence (looked up): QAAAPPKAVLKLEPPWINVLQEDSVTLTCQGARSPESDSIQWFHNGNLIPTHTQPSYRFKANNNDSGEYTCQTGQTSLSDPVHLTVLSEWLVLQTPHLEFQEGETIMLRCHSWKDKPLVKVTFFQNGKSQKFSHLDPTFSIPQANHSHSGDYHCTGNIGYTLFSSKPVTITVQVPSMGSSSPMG
# T2: FcgRIIb extracellular domain with C-terminal His tag (human, UniProt P31994 43-217)
# T2 construct: extracellular domain; also called FcγRIIb; not shown: His tag attached to the C terminus
# T2 sequence (looked up): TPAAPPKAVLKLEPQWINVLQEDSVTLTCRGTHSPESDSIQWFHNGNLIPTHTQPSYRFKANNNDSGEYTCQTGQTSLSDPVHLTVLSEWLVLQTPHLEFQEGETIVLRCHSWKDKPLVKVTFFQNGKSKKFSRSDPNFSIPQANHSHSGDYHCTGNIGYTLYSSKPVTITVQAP
# T3: FcgRIIa R extracellular domain with C-terminal His tag (human, UniProt P12318 34-217)
# T3 construct: extracellular domain; also called FcγRIIa R; FcγRIIa type R; not shown: His tag attached to the C terminus
# T3 sequence (looked up): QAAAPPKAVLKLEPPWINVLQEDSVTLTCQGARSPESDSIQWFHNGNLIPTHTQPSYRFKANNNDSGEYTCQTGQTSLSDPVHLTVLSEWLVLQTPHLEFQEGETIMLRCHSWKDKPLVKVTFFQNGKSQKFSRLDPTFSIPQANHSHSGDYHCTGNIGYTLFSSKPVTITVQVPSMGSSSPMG
# Assays:
# Assay in all cases: SPR (Biacore), antibody captured on chip, FcγR extracellular domain as analyte, kinetic analysis
# [1] = target: T4, FcgRIa extracellular domain with C-terminal His tag (human, UniProt P12314 16-292)
# T4 construct: extracellular domain; Expressed in FreeStyle293 cells; used as analyte in Biacore; also called FcγRIa; FcγRI; not shown: His tag attached to the C terminus
# T4 sequence (P12314 16-292): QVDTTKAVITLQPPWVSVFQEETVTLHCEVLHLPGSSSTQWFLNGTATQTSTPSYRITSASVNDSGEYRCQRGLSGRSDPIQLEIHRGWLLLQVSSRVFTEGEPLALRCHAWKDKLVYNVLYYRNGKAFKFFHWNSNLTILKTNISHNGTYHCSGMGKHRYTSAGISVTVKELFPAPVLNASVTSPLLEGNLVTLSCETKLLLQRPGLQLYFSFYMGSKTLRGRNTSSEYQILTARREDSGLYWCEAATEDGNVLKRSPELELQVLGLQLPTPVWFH
# Experimental: (§1) Analysis of interaction between obj ective antibody and the FcγR was carried out using Biacore T100 (GE Healthcare), Biacore T200, Biacore A100, and Biacore 4000. HBS-EP+ (GE Healthcare) was used as the running buffer, and the measurement temperature was set to 25° C. Chips produced by immobilizing the antigen peptide by the amine coupling method to a Series S sensor Chip CM5 (GE Healthcare), chips produced by allowing preliminarily biotinylated antigen peptides to interact with and immobilize onto a Series S Sensor Chip SA (certified) (GE Healthcare), chips produced by immobilizing Protein L (ACTIGEN, BioVision) to Series S Sencor Chip CM5 (GE Healthcare), or chips produced by immobilizing Protein A/G (Thermo Scientific) to Series S Sencor Chip CM5 (GE Healthcare) were used. Antibodies of interest were captured onto these chips, and allowed to interact to each FcγR diluted with running buffer. To regenerate and repeatedly use the chip, the antibodies captured onto the chip were washed off by reacting 10 mM glycine-HCl, pH 1.5.
# [2] = target: T1, FcgRIIa H extracellular domain with …
# Experimental: as §1
# [3] = target: T2, FcgRIIb extracellular domain with …
# Experimental: as §1
# [4] = target: T5, FcgRIIIa V extracellular domain with C-terminal His tag (human, UniProt P08637 17-208)
# T5 construct: extracellular domain; also called FcγRIIIa V; FcγRIIIa (V158); not shown: His tag attached to the C terminus
# T5 sequence (P08637 17-208 F176V): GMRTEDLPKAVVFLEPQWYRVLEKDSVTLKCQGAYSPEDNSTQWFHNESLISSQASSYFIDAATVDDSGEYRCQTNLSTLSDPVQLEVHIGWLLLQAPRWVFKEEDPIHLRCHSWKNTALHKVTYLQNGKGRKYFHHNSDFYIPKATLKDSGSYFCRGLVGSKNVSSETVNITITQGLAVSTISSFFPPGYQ
# Experimental: as §1
# [5] = target: T3, FcgRIIa R extracellular domain with …
# Experimental: as §1
# [6] = target: T6, FcgRIIIa F extracellular domain with C-terminal His tag (human, UniProt P08637 17-208)
# T6 construct: extracellular domain; also called FcγRIIIa F; FcγRIIIa (F158); not shown: His tag attached to the C terminus
# T6 sequence (P08637 17-208): as the sequence (P08637 17-208 F176V) above, with V160F counted along it
# Experimental: as §1
# [7] = target: T5, FcgRIIIa V extracellular domain with …; remark: listed apart in the source
# Experimental: as §1
# [8] = target: T6, FcgRIIIa F extracellular domain with …; remark: listed apart in the source
# Experimental: as §1
Binder,Kd [1] [µM],Kd [2] [µM],Kd [3] [µM],Kd [4] [µM],Kd [5] [µM],Kd [6] [µM],Kd [7] [µM],Kd [8] [µM]
"H240-Kn061/H240-Hl071/L73-k0 (antibody, human IgG1, kappa, Kn061: L234Y/L235Y/G236W/H268D/S298A; Hl071: K326D/A330M/K334E; also called H240-Kn061/H240-HI071/L73-k0) heavy 1: QDQLVQSGAEVKKPGASVKVSCKASGFNIKDTYIQWVRQAPGQGLEWMGRIDPLRKQTKYREKFEGRVTITADTSTNTAYMELSSLRSEDTAVYYCVRSGREFDYWGQGTLVTVSSASTKGPSVFPLAPSSKSTSGGTAALGCLVKDYFPEPVTVSWNSGALTSGVHTFPAVLQSSGLYSLSSVVTVPSSSLGTQTYICNVNHKPSNTKVDKKVEPKSCDKTHTCPPCPAPEYYWGPSVFLFPPKPKDTLMISRTPEVTCVVVDVSDEDPEVKFNWYVDGVEVHNAKTKPREEQYNATYRVVSVLTVLHQDWLNGKEYKCKVSNKALPAPIEKTISKAKGQPREPQVCTLPPSRDELTKNQVSLWCLVKGFYPSDIAVEWESNGQPENNYKTTPPVLDSDGSFFLYSKLTVDKSRWQQGNVFSCSVMHEALHNHYTQKSLSLSP heavy 2: QDQLVQSGAEVKKPGASVKVSCKASGFNIKDTYIQWVRQAPGQGLEWMGRIDPLRKQTKYREKFEGRVTITADTSTNTAYMELSSLRSEDTAVYYCVRSGREFDYWGQGTLVTVSSASTKGPSVFPLAPSSKSTSGGTAALGCLVKDYFPEPVTVSWNSGALTSGVHTFPAVLQSSGLYSLSSVVTVPSSSLGTQTYICNVNHKPSNTKVDKKVEPKSCDKTHTCPPCPAPELLGGPSVFLFPPKPKDTLMISRTPEVTCVVVDVSHEDPEVKFNWYVDGVEVHNAKTKPREEQYNSTYRVVSVLTVLHQDWLNGKEYKCKVSNDALPMPIEETISKAKGQPREPQVYTLPPSRCELTKNQVSLSCAVKGFYPSDIAVEWESNGQPENNYKTTPPVLDSDGSFFLVSKLTVDKSRWQQGNVFSCSVMHEALHNHYTQKSLSLSP light: DIQMTQSPSSLSASVGDRVTITCRASQDIHKYIAWYQQKPGQAPRLLIQYTSTLQPGVPSRFSGSGSGTDYTFTISSLQPEDIATYYCLQYEQLRTFGGGTKVEIKRTVAAPSVFIFPPSDEQLKSGTASVVCLLNNFYPREAKVQWKVDNALQSGNSQESVTEQDSKDSTYSLSSTLTLSKADYEKHKVYACEVTHQGLSSPVTKSFNRGEC",0.00014,0.28,1.2,0.0018,0.35,0.0051,0.0018,0.0051
"H240-Kn061/H240-Hl134/L73-k0 (antibody, human IgG1, kappa, L234Y/L235Y/G236W/H268D/S298A in both H chains (called homodimerized); also called H240-Kn061/H240-HI134/L73-k0) heavy 1: QDQLVQSGAEVKKPGASVKVSCKASGFNIKDTYIQWVRQAPGQGLEWMGRIDPLRKQTKYREKFEGRVTITADTSTNTAYMELSSLRSEDTAVYYCVRSGREFDYWGQGTLVTVSSASTKGPSVFPLAPSSKSTSGGTAALGCLVKDYFPEPVTVSWNSGALTSGVHTFPAVLQSSGLYSLSSVVTVPSSSLGTQTYICNVNHKPSNTKVDKKVEPKSCDKTHTCPPCPAPEYYWGPSVFLFPPKPKDTLMISRTPEVTCVVVDVSDEDPEVKFNWYVDGVEVHNAKTKPREEQYNATYRVVSVLTVLHQDWLNGKEYKCKVSNKALPAPIEKTISKAKGQPREPQVCTLPPSRDELTKNQVSLWCLVKGFYPSDIAVEWESNGQPENNYKTTPPVLDSDGSFFLYSKLTVDKSRWQQGNVFSCSVMHEALHNHYTQKSLSLSP heavy 2: QDQLVQSGAEVKKPGASVKVSCKASGFNIKDTYIQWVRQAPGQGLEWMGRIDPLRKQTKYREKFEGRVTITADTSTNTAYMELSSLRSEDTAVYYCVRSGREFDYWGQGTLVTVSSASTKGPSVFPLAPSSKSTSGGTAALGCLVKDYFPEPVTVSWNSGALTSGVHTFPAVLQSSGLYSLSSVVTVPSSSLGTQTYICNVNHKPSNTKVDKKVEPKSCDKTHTCPPCPAPEYYWGPSVFLFPPKPKDTLMISRTPEVTCVVVDVSDEDPEVKFNWYVDGVEVHNAKTKPREEQYNATYRVVSVLTVLHQDWLNGKEYKCKVSNKALPAPIEKTISKAKGQPREPQVYTLPPSRCELTKNQVSLSCAVKGFYPSDIAVEWESNGQPENNYKTTPPVLDSDGSFFLVSKLTVDKSRWQQGNVFSCSVMHEALHNHYTQKSLSLSP light: DIQMTQSPSSLSASVGDRVTITCRASQDIHKYIAWYQQKPGQAPRLLIQYTSTLQPGVPSRFSGSGSGTDYTFTISSLQPEDIATYYCLQYEQLRTFGGGTKVEIKRTVAAPSVFIFPPSDEQLKSGTASVVCLLNNFYPREAKVQWKVDNALQSGNSQESVTEQDSKDSTYSLSSTLTLSKADYEKHKVYACEVTHQGLSSPVTKSFNRGEC",–,–,–,–,–,–,0.086,0.66
"H240-Kn132/H240-Hl071/L73-k0 (antibody, human IgG1, kappa, K326D/A330M/K334E in both H chains (called homodimerized); also called H240-Kn132/H240-HI071/L73-k0) heavy 1: QDQLVQSGAEVKKPGASVKVSCKASGFNIKDTYIQWVRQAPGQGLEWMGRIDPLRKQTKYREKFEGRVTITADTSTNTAYMELSSLRSEDTAVYYCVRSGREFDYWGQGTLVTVSSASTKGPSVFPLAPSSKSTSGGTAALGCLVKDYFPEPVTVSWNSGALTSGVHTFPAVLQSSGLYSLSSVVTVPSSSLGTQTYICNVNHKPSNTKVDKKVEPKSCDKTHTCPPCPAPELLGGPSVFLFPPKPKDTLMISRTPEVTCVVVDVSHEDPEVKFNWYVDGVEVHNAKTKPREEQYNSTYRVVSVLTVLHQDWLNGKEYKCKVSNDALPMPIEETISKAKGQPREPQVCTLPPSRDELTKNQVSLWCLVKGFYPSDIAVEWESNGQPENNYKTTPPVLDSDGSFFLYSKLTVDKSRWQQGNVFSCSVMHEALHNHYTQKSLSLSP heavy 2: QDQLVQSGAEVKKPGASVKVSCKASGFNIKDTYIQWVRQAPGQGLEWMGRIDPLRKQTKYREKFEGRVTITADTSTNTAYMELSSLRSEDTAVYYCVRSGREFDYWGQGTLVTVSSASTKGPSVFPLAPSSKSTSGGTAALGCLVKDYFPEPVTVSWNSGALTSGVHTFPAVLQSSGLYSLSSVVTVPSSSLGTQTYICNVNHKPSNTKVDKKVEPKSCDKTHTCPPCPAPELLGGPSVFLFPPKPKDTLMISRTPEVTCVVVDVSHEDPEVKFNWYVDGVEVHNAKTKPREEQYNSTYRVVSVLTVLHQDWLNGKEYKCKVSNDALPMPIEETISKAKGQPREPQVYTLPPSRCELTKNQVSLSCAVKGFYPSDIAVEWESNGQPENNYKTTPPVLDSDGSFFLVSKLTVDKSRWQQGNVFSCSVMHEALHNHYTQKSLSLSP light: DIQMTQSPSSLSASVGDRVTITCRASQDIHKYIAWYQQKPGQAPRLLIQYTSTLQPGVPSRFSGSGSGTDYTFTISSLQPEDIATYYCLQYEQLRTFGGGTKVEIKRTVAAPSVFIFPPSDEQLKSGTASVVCLLNNFYPREAKVQWKVDNALQSGNSQESVTEQDSKDSTYSLSSTLTLSKADYEKHKVYACEVTHQGLSSPVTKSFNRGEC",–,–,–,–,–,–,0.016,0.077
